T1: StsR (GntR family regulator) (Streptococcus mutans UA159) (UniProt Q8DTX4)
T1 sequence: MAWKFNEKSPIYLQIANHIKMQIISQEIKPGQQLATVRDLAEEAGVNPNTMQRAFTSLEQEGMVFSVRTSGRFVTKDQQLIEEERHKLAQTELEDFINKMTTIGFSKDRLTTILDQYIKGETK

B1: stsR p3mut (dsDNA)
DNA 1: CCACTTGACAATATTTTACTCCACCTGTCCTCCATATATAACAC
DNA 2: GTGTTATATATGGAGGACAGGTGGAGTAAAATATTGTCAAGTGG
B2: stsR p3 (dsDNA)
DNA 1: CCACTTGACAATATTTTACTATAATTGTATTATATATATAACAC
DNA 2: GTGTTATATATATAATACAATTATAGTAAAATATTGTCAAGTGG

Columns and labels:
[1] = molecular target: T1, StsR (GntR family regulator) (Streptococcus mutans UA159); experiment: EMSA; settings: 50 mM Tris/HCl, 10 mM NaCl, 0.5 M Mg acetate (so in the source), 0.1 mM EDTA, 5% glycerol, 30 min, 10 uL; 4% native PAGE in 0.5x TBS; pH and binding temperature not …
[2] = molecular target: T1, StsR (GntR family regulator) (Streptococcus mutans UA159); experiment: DNase I footprinting; settings: 50 mM Tris/HCl, 10 mM NaCl, 0.5 M Mg acetate (so in the source), 0.1 mM EDTA, 5% glycerol, 30 min, 10 uL; 4% native PAGE in 0.5x TBS; pH and binding temperature not …
[3] = molecular target: StsR (GntR family regulator) (Streptococcus mutans UA159, UniProt Q8DTX4 1-123); experiment: EMSA; 10-40 pmol StsR; 50 mM Tris/HCl, 10 mM NaCl, 0.5 M Mg acetate (so in the source), 0.1 mM EDTA, 5% glycerol, 30 min, 10 uL; 4% native PAGE in 0.5x TBS; pH and binding temperature not stated (DNase I digestion at 28 C); settings: protein: recombinant; tags: His6 (pET28a); chain copies: 2; label: FITC; annealed with reverse complement

Molecule	binding [1]	also measured
AAGTGTCTCCTTCTACTTTTTAATAAAATAGTATTGTTTACTCAAATAATCACCTTGCGGCATATCAATGGTCAATCCCGCATACATTAACTCCGCA (double strand) [multiple sugar-binding ABC transporter promoter]	binds	
CAAATTTTGGCAAAACTTTTGTGCCAAAATTTGAGTTTTATTAGAAAATGAAAAATGTTACAGTAGTTTTAGAATAAAAAGGAGGGGATTTCTGATGGAACGAAAATCTTCATTGAAGGTTCGGGTACA (double strand) [mannitol-specific PTS promoter]	binds	
CAGGGATATGAAAATGACAAATGACACTGCAAAAGCGTTTTCAAAAAATGTAAAATAAAAATGAAATAAAAAAGAAAGTAGGGTGTATTC (double strand) [mannose-specific PTS promoter]	binds	
CTTATAAAGTAATTTAATATCTTGATGAAATTTTAAAAAAACTTGACATTTTTCGCAAACGATTGCATAATATTATTGTAACAAAAATTACAAAGAAATTTCAGGAGGAAATCGCT (double strand) [maltose ABC transporter promoter]	binds	
CTTCTGTCTCCTTAAGATCTACTTACTTTTATTATACTACAAATCCTTAAAATCCTCTTACTCTTTCATTTAATTCTACTAAATCTCATCAGTCTAAATTTACCACTTGACAATATTTTACTATAATTGTATTATATATATAACACAATTATACACTGCACTTTAGAAAGGAGAAAAAATGGCT (double strand) [stsR p2 FITC]		binding [2]: binds
CTTCTGTCTCCTTAAGATCTACTTACTTTTATTATACTACAAATCCTTAAAATCCTCTTACTCTTTCATTTAATTCTACTAAATCTCATCAGTCTAAATTTACCACTTGACAATATTTTACTATAATTGTATTATATATATAACACAATTATACACTGCACTTTAGAAAGGAGAAAAAATGGCT (double strand) [stsR p2]	binds	
B1		binding result [3]: no binding
B2		binding result [3]: binds
